Experimental data taken from the Immune Epitope Database (IEDB).
pIC50, pKd: −log10 of the molar value. Blank lines part the entries; values can stand above or below the sequence they belong to.

How the values were obtained:
HLA-A*69:01 = assay: IEDB peptide-MHC binding, purified MHC/direct/fluorescence; filed as Kd, often an IC50 or EC50 that approximates it; ≥ and ≤ were set here for values at or beyond the usual limits of such assays; details: source organism: Pseudomonas aeruginosa
HLA-A*01:01 [1] = assay: as above; details: source organism: Pseudomonas aeruginosa
HLA-A*02:01 [2] = assay: as above; details: source organism: Pseudomonas aeruginosa
HLA-B*15:01 [3] = assay: as above; details: source organism: Pseudomonas aeruginosa
HLA-B*40:01 = assay: as above; details: source organism: Pseudomonas aeruginosa
HLA-A*31:01 = assay: as above; details: source organism: Pseudomonas aeruginosa
HLA-A*11:01 [4] = assay: as above; details: source organism: Pseudomonas aeruginosa
HLA-A*03:01 = assay: as above; details: source organism: Pseudomonas aeruginosa
HLA-B*07:02 = assay: as above; details: source organism: Pseudomonas aeruginosa
HLA-A*26:01 [5] = assay: as above; details: source organism: Pseudomonas aeruginosa
HLA-B*58:01 = assay: as above; details: source organism: Pseudomonas aeruginosa
HLA-B*27:05 = assay: as above; details: source organism: Pseudomonas aeruginosa
HLA-B*08:01 = assay: as above; details: source organism: Pseudomonas aeruginosa
HLA-B*15:01 [6] = assay: IEDB peptide-MHC binding, purified MHC/competitive/fluorescence; filed as Kd, often an IC50 or EC50 that approximates it; ≥ and ≤ were set here for values at or beyond the usual limits of such assays
HLA-A*01:01 [7] = assay: IEDB peptide-MHC binding, purified MHC/competitive/radioactivity; filed as Kd, often an IC50 or EC50 that approximates it; ≥ and ≤ were set here for values at or beyond the usual limits of such assays; details: source organism: Mammarenavirus brazilense
HLA-A*30:02 = assay: as above; details: source organism: Mammarenavirus brazilense
HLA-A*30:01 = assay: as above; details: source organism: Mammarenavirus brazilense
HLA-A*32:01 = assay: as above
HLA-A*29:02 = assay: as above; details: source organism: Mammarenavirus brazilense
HLA-A*26:01 [8] = assay: as above; details: source organism: Mammarenavirus brazilense
HLA-A*02:01 [9] = assay: IEDB peptide-MHC binding, purified MHC/competitive/fluorescence; ≥ and ≤ were set here for values at or beyond the usual limits of such assays
HLA-A*24:02 [10] = assay: as above
HLA-B*51:01 = assay: IEDB peptide-MHC binding, purified MHC/competitive/radioactivity; filed as Kd, often an IC50 or EC50 that approximates it; ≥ and ≤ were set here for values at or beyond the usual limits of such assays; details: source organism: Dengue virus 3 Martinique/1243/1999
HLA-A*23:01 = assay: as above; details: source organism: Mammarenavirus oliverosense
HLA-A*24:02 [11] = assay: as above; details: source organism: Mammarenavirus oliverosense
HLA-A*11:01 [12] = assay: IEDB peptide-MHC binding, purified MHC/competitive/fluorescence; ≥ and ≤ were set here for values at or beyond the usual limits of such assays
[13] = source organism: Mammarenavirus brazilense
[14] = source organism: Zaire ebolavirus
[15] = source organism: Vaccinia virus WR

pKd (HLA-A*69:01): ≤ 4.70 | pKd (HLA-A*01:01 [1]): ≤ 4.70 | pKd (HLA-A*02:01 [2]): ≤ 4.70 | pKd (HLA-B*15:01 [3]): ≤ 4.70 | pKd (HLA-B*40:01): 5.59 | pKd (HLA-A*31:01): ≤ 4.70 | pKd (HLA-A*11:01 [4]): ≤ 4.70 | pKd (HLA-A*03:01): ≤ 4.70 | pKd (HLA-B*07:02): ≤ 4.70 | pKd (HLA-A*26:01 [5]): ≤ 4.70 | pKd (HLA-B*58:01): ≤ 4.70 | pKd (HLA-B*27:05): ≤ 4.70 | pKd (HLA-B*08:01): ≤ 4.70
Sequence: GEDDDMLPW

Sequence: GIFGAIAGF
pKd (HLA-B*15:01 [6]; source organism: Influenza A virus (A/equine/NewMarket/D64/79(H3N8))): 6.54

Sequence: GLNISGYNY
pKd (HLA-A*01:01 [7]): 4.87 | pKd (HLA-A*30:02): 7.02 | pKd (HLA-A*30:01): ≤ 4.41 | pKd (HLA-A*32:01; [13]): 4.78 | pKd (HLA-A*29:02): 7.77 | pKd (HLA-A*26:01 [8]): ≤ 4.17

Sequence: GVVAFLILP
pIC50 (HLA-A*02:01 [9]; [14]): 4.27 | pIC50 (HLA-A*24:02 [10]; [14]): ≤ 3.71

Sequence: IALDLVTEI
pKd (HLA-B*51:01): 8.82

Sequence: ICLSGEGWPY
pKd (HLA-A*23:01): ≤ 4.25 | pKd (HLA-A*30:01): 5.37 | pKd (HLA-A*32:01; [13]): ≤ 4.67 | pKd (HLA-A*24:02 [11]): ≤ 4.15

Sequence: IEVKYSPMY
pKd (HLA-B*15:01 [6]; source organism: Bacillus cereus G9241): 6.66

Sequence: IGIEILNTI
pIC50 (HLA-A*02:01 [9]; [15]): 6.15 | pIC50 (HLA-A*24:02 [10]; [15]): 6.88

Sequence: ITLHLACGF
pKd (HLA-A*32:01; [15]): 8.85

Sequence: IVINPFVKF
pKd (HLA-A*32:01; [15]): 5.49

Sequence: KACLEKVQR
pIC50 (HLA-A*11:01 [12]; [14]): ≤ 3.73

Sequence: KDESIFINK
pIC50 (HLA-A*11:01 [12]; source organism: Vaccinia virus Copenhagen): ≤ 4.08
